# Laboratory results from article PMC10613254 (2023).
# Molecular target: bovine brain Arp2/3 complex (bovine, UniProt P61157 1-418; A7MB62 1-394; Q58CQ2 1-372; Q3MHR7 1-300; Q3T035 1-178; Q148J6 …)
# Assay: ITC
row,Binder,Kd [µM]
1,MWKASAGHAVSITQDDGGADDWETDPDFVNDVS (domain or fragment) [Cort_(1-33)],5.4
2,Cort_(18-76) (domain or fragment) GADDWETDPDFVNDVSEKEQRWGAKTVQGSGHQEHINIHKLRENVFQEHQTLKEKELET,2.2
3,"Cort_(1-76), cortactin N-terminal acidic domain (NTA, residues 1-76) (domain or fragment) MWKASAGHAVSITQDDGGADDWETDPDFVNDVSEKEQRWGAKTVQGSGHQEHINIHKLRENVFQEHQTLKEKELET",4.5
